Test results: US7097990B2, “Method of screening cell death inhibitor” (Astellas Pharma Inc., priority 2001, dated 2006)

Target: PARP (Cricetulus griseus, UniProt Q9R152)
Assay: PARP inhibition in transfected CHO dhfr- cells, 3H-NAD incorporation
Conditions: H2O2 0.06%; cells co-expressing LTRPC2 and PARP-1 dominant negative mutant versus LTRPC2 alone

Sequence of PARP (Q9R152 2-1013): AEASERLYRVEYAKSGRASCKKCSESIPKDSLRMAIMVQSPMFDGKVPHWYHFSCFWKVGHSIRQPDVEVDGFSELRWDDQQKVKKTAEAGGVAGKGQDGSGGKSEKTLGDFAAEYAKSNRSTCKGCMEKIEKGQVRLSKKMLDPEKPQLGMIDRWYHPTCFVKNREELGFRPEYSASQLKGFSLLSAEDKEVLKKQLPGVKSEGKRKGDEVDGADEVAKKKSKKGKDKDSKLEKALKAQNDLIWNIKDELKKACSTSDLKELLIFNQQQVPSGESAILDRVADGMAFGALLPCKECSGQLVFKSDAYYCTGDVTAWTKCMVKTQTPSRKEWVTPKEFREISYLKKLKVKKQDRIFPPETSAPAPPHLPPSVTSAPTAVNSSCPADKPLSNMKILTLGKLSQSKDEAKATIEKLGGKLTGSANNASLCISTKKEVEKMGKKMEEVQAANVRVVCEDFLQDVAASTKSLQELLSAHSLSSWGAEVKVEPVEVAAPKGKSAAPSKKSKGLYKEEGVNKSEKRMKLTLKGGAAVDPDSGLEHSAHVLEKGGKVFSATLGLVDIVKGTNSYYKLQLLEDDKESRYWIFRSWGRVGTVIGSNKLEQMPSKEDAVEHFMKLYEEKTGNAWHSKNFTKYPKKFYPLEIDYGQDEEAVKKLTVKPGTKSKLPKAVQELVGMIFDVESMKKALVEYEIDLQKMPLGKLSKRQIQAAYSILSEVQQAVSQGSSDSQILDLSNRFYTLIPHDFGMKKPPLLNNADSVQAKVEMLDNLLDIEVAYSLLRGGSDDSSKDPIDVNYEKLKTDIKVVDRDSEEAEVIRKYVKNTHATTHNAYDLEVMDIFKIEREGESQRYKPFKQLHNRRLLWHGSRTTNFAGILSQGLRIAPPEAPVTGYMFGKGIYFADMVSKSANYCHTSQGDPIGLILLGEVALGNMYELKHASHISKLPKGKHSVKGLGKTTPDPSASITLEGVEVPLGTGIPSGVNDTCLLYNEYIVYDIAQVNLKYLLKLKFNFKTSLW

In the case of “PARP-1 dominant negative mutant: human PARP-1 DNA binding region (positions 1 to 374), amino acid sequence SEQ ID NO:20, co-expressed in cells”, the “3H radioactivity in comparison with the control cells” value is reported as 67%.
